Laboratory results: the supplement of paper PMC9112550, “Optimization of the antimicrobial peptide Bac7 by deep mutational scanning” (BMC Biology, 2022)

Tested on: Escherichia coli TOP10
Experiment: shrunken log2 fold change of peptide-encoding DNA abundance (4.5 h post-induction vs induction); higher = less antimicrobial activity (less host growth inhibition)
Conditions: time post-induction: 4.5 h; library: site-saturation at positions 5, 18, 19, 20
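Note: peptides expressed intracellularly from a pBAD plasmid library in pooled LB shake-flask culture, induced with 0.3% L-arabinose, DNA abundance read by NGS, three biological replicates, DESeq2 with apeglm shrinkage.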

| Sequence | shrunken log2 fold change |
| --- | --- |
| RRIRMRPPRLPRPRPRPIPHPRP | 0.246 |
| RRIRRRPPRLPRPRPRPIGEPRP | -0.00811 |
| RRIRARPPRLPRPRPRPDPFPRP | 0.0855 |
| RRIRWRPPRLPRPRPRPMSWPRP | 0.0971 |
| RRIRTRPPRLPRPRPRPQREPRP | -0.0725 |
| RRIRQRPPRLPRPRPRPGYPPRP | -0.181 |
| RRIRERPPRLPRPRPRPRYEPRP | -0.276 |
| RRIRYRPPRLPRPRPRPAGCPRP | -0.177 |
| RRIRKRPPRLPRPRPRPITYPRP | -0.193 |
| RRIRSRPPRLPRPRPRPLWLPRP | -0.0472 |
| RRIRCRPPRLPRPRPRPDPCPRP | -0.039 |
| RRIRKRPPRLPRPRPRPYRTPRP | -0.224 |
| RRIRYRPPRLPRPRPRPQEMPRP | -0.0143 |
| RRIRGRPPRLPRPRPRPQCTPRP | 0.085 |
| RRIRSRPPRLPRPRPRPWISPRP | 0.181 |
| RRIRRRPPRLPRPRPRPVMQPRP | 0.316 |
| RRIRPRPPRLPRPRPRPAEWPRP | 0.308 |
| RRIRMRPPRLPRPRPRPPPMPRP | 1.54 |
| RRIRSRPPRLPRPRPRPNIFPRP | -0.138 |
| RRIRQRPPRLPRPRPRPTPLPRP | 0.487 |
| RRIRWRPPRLPRPRPRPGPFPRP | 0.125 |
| RRIRRRPPRLPRPRPRPLLYPRP | 0.138 |
| RRIRERPPRLPRPRPRPCGIPRP | 0.00383 |
| RRIRNRPPRLPRPRPRPHVTPRP | -0.357 |
| RRIRSRPPRLPRPRPRPFTMPRP | -0.811 |

| Sequence | shrunken log2 fold change |
| --- | --- |
| RRIRSRPPRLPRPRPRPQVIPRP | 0.00733 |
| RRIRQRPPRLPRPRPRPASIPRP | -0.0578 |
| RRIRIRPPRLPRPRPRPPDSPRP | -0.0582 |
| RRIRGRPPRLPRPRPRPGFEPRP | 0.813 |
| RRIRDRPPRLPRPRPRPMWGPRP | -0.0471 |
| RRIRNRPPRLPRPRPRPRGEPRP | -0.029 |
| RRIRDRPPRLPRPRPRPVPRPRP | 0.186 |
| RRIRMRPPRLPRPRPRPMRNPRP | 1.62 |
| RRIRERPPRLPRPRPRPYELPRP | -0.563 |
| RRIRCRPPRLPRPRPRPKLRPRP | 0.564 |
| RRIRVRPPRLPRPRPRPSLTPRP | -0.231 |
| RRIRSRPPRLPRPRPRPRVKPRP | -0.224 |
| RRIRQRPPRLPRPRPRPCDGPRP | -0.26 |
| RRIRIRPPRLPRPRPRPHFNPRP | -0.966 |
| RRIRERPPRLPRPRPRPKQKPRP | -0.0338 |
| RRIRIRPPRLPRPRPRPYKSPRP | -1.14 |
| RRIRDRPPRLPRPRPRPTKAPRP | 0.000414 |
| RRIRPRPPRLPRPRPRPALFPRP | 0.2 |
| RRIRPRPPRLPRPRPRPKTTPRP | 0.507 |
| RRIRCRPPRLPRPRPRPLNRPRP | -0.413 |
| RRIRVRPPRLPRPRPRPCVIPRP | -0.0142 |
| RRIRHRPPRLPRPRPRPPMHPRP | -0.0169 |
| RRIRWRPPRLPRPRPRPVNIPRP | 0.0116 |
| RRIRQRPPRLPRPRPRPGYHPRP | -0.108 |
| RRIRQRPPRLPRPRPRPVIQPRP | -0.065 |

| Sequence | shrunken log2 fold change |
| --- | --- |
| RRIRNRPPRLPRPRPRPDAYPRP | 0.068 |
| RRIRYRPPRLPRPRPRPNQIPRP | -0.0468 |
| RRIRARPPRLPRPRPRPSCHPRP | -0.138 |
| RRIRVRPPRLPRPRPRPVAIPRP | -0.396 |
| RRIRLRPPRLPRPRPRPGGPPRP | 1.36 |
| RRIRERPPRLPRPRPRPYSYPRP | -0.0155 |
| RRIRDRPPRLPRPRPRPSLEPRP | 0.245 |
| RRIRARPPRLPRPRPRPKRHPRP | 0.511 |
| RRIRQRPPRLPRPRPRPEEGPRP | -0.0102 |
| RRIRWRPPRLPRPRPRPVVWPRP | 0.626 |
| RRIRVRPPRLPRPRPRPATCPRP | -0.164 |
| RRIRMRPPRLPRPRPRPEGMPRP | 2.24 |
| RRIRARPPRLPRPRPRPDHHPRP | -0.201 |
| RRIRMRPPRLPRPRPRPICYPRP | -0.119 |
| RRIRWRPPRLPRPRPRPIFHPRP | -0.101 |
| RRIRNRPPRLPRPRPRPCYTPRP | -0.0126 |
| RRIRIRPPRLPRPRPRPHDAPRP | -0.175 |
| RRIRCRPPRLPRPRPRPPEAPRP | 0.968 |
| RRIRLRPPRLPRPRPRPVWFPRP | 0.00279 |
| RRIRKRPPRLPRPRPRPINKPRP | -0.328 |
| RRIRWRPPRLPRPRPRPKWSPRP | 0.272 |
| RRIRIRPPRLPRPRPRPSPPPRP | -0.214 |
| RRIRLRPPRLPRPRPRPDKFPRP | -0.26 |
| RRIRIRPPRLPRPRPRPQNQPRP | -1.03 |
| RRIRKRPPRLPRPRPRPAVDPRP | -0.0502 |

| Sequence | shrunken log2 fold change |
| --- | --- |
| RRIRDRPPRLPRPRPRPRFSPRP | -0.037 |
| RRIRQRPPRLPRPRPRPSRFPRP | 3.97 |
| RRIRMRPPRLPRPRPRPVQYPRP | 0.0273 |
| RRIRCRPPRLPRPRPRPEGQPRP | 0.788 |
| RRIRHRPPRLPRPRPRPAYHPRP | -0.274 |
| RRIRKRPPRLPRPRPRPCLKPRP | -0.0379 |
| RRIRLRPPRLPRPRPRPWFGPRP | -0.149 |
| RRIRYRPPRLPRPRPRPNCGPRP | -0.00237 |
| RRIRCRPPRLPRPRPRPMVEPRP | 0.237 |
| RRIRCRPPRLPRPRPRPILRPRP | 0.103 |
| RRIRGRPPRLPRPRPRPWVAPRP | -0.026 |
| RRIRARPPRLPRPRPRPRNCPRP | 0.849 |
| RRIRCRPPRLPRPRPRPKCIPRP | -0.102 |
| RRIRFRPPRLPRPRPRPITYPRP | -0.472 |
| RRIRVRPPRLPRPRPRPNGVPRP | -0.154 |
| RRIRSRPPRLPRPRPRPWGPPRP | 0.101 |
| RRIRMRPPRLPRPRPRPLTKPRP | 0.212 |
| RRIRKRPPRLPRPRPRPRCQPRP | 0.099 |
| RRIRMRPPRLPRPRPRPTCWPRP | 0.816 |
| RRIRLRPPRLPRPRPRPKTHPRP | -0.0161 |
| RRIRTRPPRLPRPRPRPHCYPRP | -0.136 |
| RRIRTRPPRLPRPRPRPGIIPRP | 0.0136 |
| RRIRSRPPRLPRPRPRPNLEPRP | -0.144 |
| RRIRGRPPRLPRPRPRPRNPPRP | 0.52 |
| RRIRRRPPRLPRPRPRPPPPPRP | 1.03 |

| Sequence | shrunken log2 fold change |
| --- | --- |
| RRIRWRPPRLPRPRPRPAFEPRP | 0.183 |
| RRIRARPPRLPRPRPRPCVQPRP | 0.217 |
| RRIRTRPPRLPRPRPRPQYCPRP | -0.0968 |
| RRIRWRPPRLPRPRPRPPTYPRP | -0.104 |
| RRIRCRPPRLPRPRPRPWMRPRP | 0.19 |
| RRIRLRPPRLPRPRPRPRSKPRP | -0.111 |
| RRIRFRPPRLPRPRPRPPFKPRP | -0.183 |
| RRIRVRPPRLPRPRPRPDKCPRP | -0.0495 |
| RRIRIRPPRLPRPRPRPTCHPRP | -0.467 |
| RRIRHRPPRLPRPRPRPDFTPRP | -0.0849 |
| RRIRMRPPRLPRPRPRPTTPPRP | 1.15 |
| RRIRKRPPRLPRPRPRPGIAPRP | 1.46 |
| RRIRRRPPRLPRPRPRPSCCPRP | -0.0867 |
| RRIRQRPPRLPRPRPRPPYIPRP | -0.449 |
| RRIRMRPPRLPRPRPRPPRQPRP | 1.43 |
| RRIRWRPPRLPRPRPRPPCVPRP | 0.301 |
| RRIRERPPRLPRPRPRPCGNPRP | -0.00264 |
| RRIRWRPPRLPRPRPRPQFEPRP | 1.87 |
| RRIRYRPPRLPRPRPRPAKIPRP | -0.0227 |
| RRIRHRPPRLPRPRPRPHAPPRP | -0.0972 |
| RRIRPRPPRLPRPRPRPKIFPRP | -0.0976 |
| RRIRLRPPRLPRPRPRPAKIPRP | -0.143 |
| RRIRHRPPRLPRPRPRPCLGPRP | 0.0158 |
| RRIRGRPPRLPRPRPRPCNGPRP | -0.199 |
| RRIRFRPPRLPRPRPRPTLMPRP | 0.0425 |
